In patent US20210230266A1 (SINGAPORE HEALTH SERVICES PTE, published 2021):

T1: Human IL-11 (human, UniProt P20809 22-199)
T1 construct: Recombinant human IL-11 (GenScript Cat. No. Z03108-1) or IL-11 secreted by human cells; the mature form is said to have 178 residues; also called recombinant human IL-11; endogenously produced IL-11
T1 sequence: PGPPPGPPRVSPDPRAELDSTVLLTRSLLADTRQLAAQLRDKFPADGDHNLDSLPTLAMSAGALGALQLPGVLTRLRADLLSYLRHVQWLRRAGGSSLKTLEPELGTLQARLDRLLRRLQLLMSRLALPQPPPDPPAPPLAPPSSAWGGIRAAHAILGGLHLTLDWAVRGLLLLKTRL

T2: Mouse IL-11 (mouse, UniProt P47873 22-199, limits assumed)
T2 construct: also called murine IL-11; recombinant murine IL-11
T2 sequence (looked up): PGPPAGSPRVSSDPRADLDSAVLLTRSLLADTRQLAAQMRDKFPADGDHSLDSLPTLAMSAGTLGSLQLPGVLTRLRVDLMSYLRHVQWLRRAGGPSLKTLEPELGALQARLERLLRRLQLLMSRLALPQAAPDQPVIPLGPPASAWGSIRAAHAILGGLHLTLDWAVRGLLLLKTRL


Columns and labels:
Human IL-11 [1] = molecular target: T1, Human IL-11; assay: ELISA on coated recombinant human IL-11 (100 ng/well), scFv-Fc
Description: The light chain shuffled anti-IL-11 antibodies were analysed to determine the EC50 for binding to human IL-11 by ELISA according to standard methods. Briefly, wells of microtiter plates were coated with recombinant human IL-11 (100 ng/well), scFv-Fc comprising the VH and VL domains of the clones were added in a dilution series and antibody binding was detected using a polyclonal antibody detection system.

Human IL-11 [2] = molecular target: T1, Human IL-11; assay: ELISA
Description: (§1) The soluble scFv were produced by recombinant expression in E. coli, and analysed for their ability to bind to human IL-11 and murine IL-11 by ELISA. Briefly, the respective antigen was coated to wells of an ELISA plate, the cell culture supernatant containing the respective scFv was added at a 1:2 dilution, and binding was detected.

Mouse IL-11 = molecular target: T2, Mouse IL-11; assay: ELISA
Description: as §1

Human IL-11 [3] = molecular target: T1, Human IL-11; assay: cell-based or functional assay

| Binder | EC50 (Human IL-11 [1]) | hIL11 - average signal (Human IL-11 [2]) | mIL11 - average signal (Mouse IL-11) | MMP2 production, Experiment 1 (human atrial fibroblasts + TGFB1) (Human IL-11 [3]) | MMP2 production, Experiment 2 (human atrial fibroblasts + TGFB1) (Human IL-11 [3]) |
| --- | --- | --- | --- | --- | --- |
| YU100-D05 (antibody) QVQLQQSGGGVVQPGRSLRLSCAASGFTFSSYGMHWVRQAPGKGLEWVAVISYDGSNKYYADSVKGRFTISRDNSKNTLYLQMNSLRAEDTAVYYCAKIGATDPLDYWGQGTLVTVSSGSASAPKLEEGEFSEARVQSALTQPASVSGSPGQLITISCTGTNSDVGGYNYVSWYQQHPGKAPKLMIYDVSNRPSGVSNRFSGSKSGNTASLTISGLQAEDEADYYCCSYAGSYTWVFGGGTKLTVLGQPKAAPSVTLFPPSS | 0.042 µg/mL | 0.223 | 0.284 | 53.3 ng/mL | 48.8 ng/mL |
| YU100-E01 (antibody) QVQLQQSGGGVVQPGRSLRLSCAASGFTFSSYGMHWVRQAPGKGLEWVAVISYDGSNKYYADSVKGRFTISRDNSKNTLYLQMNSLRAEDTAVYYCAKIGATDPLDYWGQGTLVTVSSGSASAPKLEEGEFSEARVQSALTQPASVSGSPGQSITISCTGTSNDIGAYNYVSWYQQHPGKAPKLLIYDVNNRPSGVSDRFSGSKSGNTASLTISGLQAEDEADYYCCSYAGSYSWVFGGGTKLTVLGQPKANPTVTLFPPSS | 0.03 µg/mL | 0.207 | 0.238 | 59.3 ng/mL | 51.8 ng/mL |
| YU100-E04 (antibody) QVQLQQSGGGVVQPGRSLRLSCAASGFTFSSYGMHWVRQAPGKGLEWVAVISYDGSNKYYADSVKGRFTISRDNSKNTLYLQMNSLRAEDTAVYYCAKIGATDPLDYWGQGTLVTVSSGSASAPKLEEGEFSEARVQSALTQPRSVSGSPGQSVTISCTGTSSDVGGYNYVSWYQQHPGKTPKLMIYDVTKRPSGVPDHFSGSKSGNTASLTISGLQAEDEADYYCCSYAGSHIWVFGGGTKLTVLGQPKAAPSVTLFPPSS | 0.036 µg/mL | 0.36 | 0.472 | 50 ng/mL | 43.5 ng/mL |

Continued, values first:

| EC50 (Human IL-11 [1]) | hIL11 - average signal (Human IL-11 [2]) | mIL11 - average signal (Mouse IL-11) | MMP2 production, Experiment 1 (human atrial fibroblasts + TGFB1) (Human IL-11 [3]) | MMP2 production, Experiment 2 (human atrial fibroblasts + TGFB1) (Human IL-11 [3]) | Binder |
| --- | --- | --- | --- | --- | --- |
| 0.021 µg/mL | 0.209 | 0.423 | 55.3 ng/mL | 40.6 ng/mL | YU100-B08 (antibody) EVQLVQSGGGVVQPGRSLRLSCAASGFTFSSYGMHWVRQAPGKGLEWVAVISYDGSNKYYADSVKGRFTISRDNSKNTLYLQMNSLRAEDTAVYYCAKIGATDPLDYWGQGTLVTVSSGSASAPKLEEGEFSEARVQSALTQPASVSGSPGQSITISCTGTSSDVGGYNYVSWYQQHPGKVPRLLIYDVSNRPSGVSTRFSGSKSGNTASLTISGLQGEDEAEYYCSSFTSSTTWVFGGGTKLTVL |
| 0.022 µg/mL | 0.268 | 0.346 | 49.6 ng/mL | 42.2 ng/mL | YU100-D02 (antibody) QVRLVQSGGGVVQPGRSLRLSCAASGFTFSSYGMHWVRQAPGKGLEWVAVISYDGSNKYYADSVKGRFTISRDNSKNTLYLQMNSLRAEDTAVYYCAKIGATDPLDYWGQGTLVTVSSGSASAPKLEEGEFSEARVQSALTQPRSVSGSPGQSVTISCTGTSGDVGTYNYVSWYQQHPGKAPKLMIFDVSKRPSGVPDRFSGSKSGNTASLTISGLQAEDEADYYCNSYAGSYTWVFGGGTKLTVLGQPKAAPSVTLFPPSS |
| 0.038 µg/mL | 0.447 | 0.475 | 51.2 ng/mL | 47.2 ng/mL | YU100-D11 (antibody) QVQLVQSGGGVVQPGRSLRLSCAASGFTFSSYGMHWVRQAPGKGLEWVAVISYDGSNKYYADSVKGRFTISRDNSKNTLYLQMNSLRAEDTAVYYCAKIGATDPLDYWGQGTLVTVSSGSASAPKLEEGEFSEARVQSALTQPRSVSGSPGQSVTISCTGTSSNVGGYNYVSWYQQHPGKAPKLMIYDVSKRPSGVPDRFSGSKSGNTASLTISGLQAEDEANYYCASYAGNYNWVFGGGTKLTVLGQPKAAPSVTLFPPSS |
